Reference: patent US20050085418A1 (CELLTECH R AND D, published 2005)
Blank lines part the entries; values can stand above or below the molecule they belong to.

T1: recombinant murine chordin (murine, UniProt Q9Z0E2 27-948, limits assumed)
T1 sequence (looked up): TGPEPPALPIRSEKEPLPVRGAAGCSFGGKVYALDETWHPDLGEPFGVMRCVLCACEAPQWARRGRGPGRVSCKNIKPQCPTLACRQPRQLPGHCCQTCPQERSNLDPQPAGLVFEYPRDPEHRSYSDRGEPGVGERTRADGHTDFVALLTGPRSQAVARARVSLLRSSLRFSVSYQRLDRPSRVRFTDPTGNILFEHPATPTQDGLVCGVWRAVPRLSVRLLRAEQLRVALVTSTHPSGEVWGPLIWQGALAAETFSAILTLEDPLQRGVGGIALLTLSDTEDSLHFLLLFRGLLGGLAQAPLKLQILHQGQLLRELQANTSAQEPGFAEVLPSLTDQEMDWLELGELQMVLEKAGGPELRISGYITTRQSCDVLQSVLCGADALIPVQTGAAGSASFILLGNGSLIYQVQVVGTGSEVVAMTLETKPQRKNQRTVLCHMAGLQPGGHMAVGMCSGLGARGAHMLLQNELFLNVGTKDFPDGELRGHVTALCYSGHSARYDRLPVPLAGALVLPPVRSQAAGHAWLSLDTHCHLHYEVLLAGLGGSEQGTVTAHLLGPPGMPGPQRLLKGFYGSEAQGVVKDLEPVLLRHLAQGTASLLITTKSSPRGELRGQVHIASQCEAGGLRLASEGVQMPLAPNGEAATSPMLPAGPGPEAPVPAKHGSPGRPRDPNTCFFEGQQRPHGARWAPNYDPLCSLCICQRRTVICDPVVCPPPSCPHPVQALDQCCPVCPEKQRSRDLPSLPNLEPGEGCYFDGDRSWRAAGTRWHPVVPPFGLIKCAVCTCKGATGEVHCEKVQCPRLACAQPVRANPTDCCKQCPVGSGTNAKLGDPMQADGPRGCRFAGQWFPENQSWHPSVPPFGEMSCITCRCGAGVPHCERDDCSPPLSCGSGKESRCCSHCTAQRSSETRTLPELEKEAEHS

T2: Noggin-Fc fusion protein (murine, UniProt P97466 28-232, limits assumed)
T2 construct: also called recombinant murine noggin; not shown: Fc portion, captured and detected with anti-human Fc antibodies
T2 sequence (looked up): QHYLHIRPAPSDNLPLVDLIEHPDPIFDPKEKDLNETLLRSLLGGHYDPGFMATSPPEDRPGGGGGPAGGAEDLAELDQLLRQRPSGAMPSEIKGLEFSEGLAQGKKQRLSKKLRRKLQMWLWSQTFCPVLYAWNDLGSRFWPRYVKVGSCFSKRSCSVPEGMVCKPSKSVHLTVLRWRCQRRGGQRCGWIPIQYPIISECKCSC

B1: purified human sclerostin-FLAG® fusion protein (other, UniProt Q9BQB4 24-213, looked up)
chain: QGWQAFKNDATEIIPELGEYPEPPPELENNKTMNRAENGGRPPHHPFETKDVSEYSCRELHFTRYVTDGPCRSAKPVTELVCSGQCGPARLLPNAIGRGKWWRPSGPDFRCIPDRYRAQRVQLLCPGGEAPRARKVRLVASCKCKRLTRFHNQSELKDFGTEAARPQKGRKPRPRARSAKANQAELENAY
notes: Immobilised on CM5 chips (200 and 400 RU) or on anti-FLAG M2 agarose beads; also called FLAG®-Beer; FLAG®-tagged sclerostin; not shown: FLAG tag
B2: BMP-2 (ligand)
chain: QAKHKQRKRLKSSCKRHPLYVDFSDVGWNDWIVAPPGYHAFYCHGECPFPLADHLNSTNHAIVQTLVNSVNSKIPKACCVPTELSAISMLYLDENEKVVLKNYQDMVVEGCGCR
modifications: Disulfide-linked homodimer; one copy of the mature chain is given.
notes: Bought recombinant protein; also called recombinant BMP protein (R&D Systems)

Experiments:
[1] = molecular target: purified human sclerostin-FLAG® fusion protein (human) (UniProt Q9BQB4); test: SPR (Biacore), immobilised sclerostin
[2] = molecular target: T1, recombinant murine chordin; test: SPR, chip-immobilised recombinant human sclerostin, graded concentrations of recombinant murine chordin (FIG. 2A)
Method: (§1) The running buffer for Biacore analysis was HBS-EP CMD (10 mM HEPES, 150 mM NaCl, 3 mM EDTA, 0.005% polysorbate 20, and 1 mg/ml carboxyl-methyl dextran). […] The data was processed using the Bia-evaluation software by first correcting for background binding in a non-functionalized flow cell and analyzing the resulting binding curves for on/off rates.

Noggin-Fc fusion protein [3] = molecular target: T2, Noggin-Fc fusion protein; test: SPR, chip-immobilised recombinant human sclerostin, graded concentrations of recombinant murine noggin (FIG. 2B)
Method: as §1

Noggin-Fc fusion protein [4] = molecular target: T2, Noggin-Fc fusion protein; test: SPR (Biacore), human sclerostin immobilised on the chip, rmNoggin injected at 0.31 to 10 ug/ml [box under the right panel]
[5] = molecular target: T1, recombinant murine chordin; test: SPR (Biacore), human sclerostin immobilised on the chip, rmChordin injected at 0.62 to 10 ug/ml [box under the left panel]
[6] = molecular target: B1; test: SPR (Biacore), immobilised sclerostin
Method: The running buffer for Biacore analysis was HBS-EP CMD (10 mM HEPES, 150 mM NaCl, 3 mM EDTA, 0.005 % polysorbate 20, and 1 mg/ml carboxyl-methyl dextran). […] BMP proteins were diluted in running buffer and injected over the sensor chip using the Biacore 3000 instrumentation. The data was processed using the Bia-evaluation software (Biacore) by first correcting for background binding in a non-functionalized flow cell and analyzing the resulting binding curves for on/off rates.

Kd [1]: < 15 nM
Molecule: BMP-5 (ligand)

Kd [1]: < 15 nM
Molecule: BMP-7 (ligand)

Kd [1]: < 15 nM
Molecule: BMP-4 (ligand)

Molecule: B1
Kd [2]: 1.76 nM
Kd (Noggin-Fc fusion protein [3]): 2.92 nM
koff (Noggin-Fc fusion protein [4]): 0.00435 s⁻¹
kon (Noggin-Fc fusion protein [4]): 1.46e+06 M⁻¹ s⁻¹
koff [5]: 0.00209 s⁻¹
kon [5]: 1.18e+06 M⁻¹ s⁻¹

Molecule: B2
Kd [6]: < 10 nM
